In patent publication US20260184748A1 (University of Pennsylvania, published 2026):
Where no end group is shown, it is not given here.

How the values were obtained:
Assay in all cases: cell-based or functional assay
CCR1 = biological target: T1, CCR1 (UniProt P32246 1-355)
T1 sequence (looked up): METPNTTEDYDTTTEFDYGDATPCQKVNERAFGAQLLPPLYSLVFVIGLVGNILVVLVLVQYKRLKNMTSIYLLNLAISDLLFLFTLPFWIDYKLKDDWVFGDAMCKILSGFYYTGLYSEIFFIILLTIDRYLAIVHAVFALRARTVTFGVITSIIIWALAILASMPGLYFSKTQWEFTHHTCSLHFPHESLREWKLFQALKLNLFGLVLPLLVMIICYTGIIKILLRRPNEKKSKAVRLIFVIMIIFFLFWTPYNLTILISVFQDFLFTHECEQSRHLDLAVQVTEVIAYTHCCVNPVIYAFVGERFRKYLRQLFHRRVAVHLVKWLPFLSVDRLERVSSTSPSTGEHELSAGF

HRH1 = HRH1 (UniProt P35367 1-487)
Sequence of HRH1 (P35367 whole entry): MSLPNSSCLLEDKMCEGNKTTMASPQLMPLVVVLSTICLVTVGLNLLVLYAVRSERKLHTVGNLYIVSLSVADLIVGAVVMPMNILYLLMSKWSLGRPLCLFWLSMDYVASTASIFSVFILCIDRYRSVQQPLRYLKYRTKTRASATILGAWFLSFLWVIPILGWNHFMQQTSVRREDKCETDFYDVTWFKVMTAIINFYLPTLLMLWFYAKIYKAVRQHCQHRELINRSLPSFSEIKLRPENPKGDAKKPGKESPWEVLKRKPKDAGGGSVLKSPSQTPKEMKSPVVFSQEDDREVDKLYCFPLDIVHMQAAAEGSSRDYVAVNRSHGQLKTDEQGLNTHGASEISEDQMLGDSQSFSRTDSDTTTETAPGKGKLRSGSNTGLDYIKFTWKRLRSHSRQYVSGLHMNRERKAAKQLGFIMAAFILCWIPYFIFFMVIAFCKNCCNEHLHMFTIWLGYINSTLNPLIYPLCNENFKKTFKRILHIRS

PTHR1 = biological target: T2, PTHR1 (UniProt Q03431 27-593)
T2 sequence (looked up): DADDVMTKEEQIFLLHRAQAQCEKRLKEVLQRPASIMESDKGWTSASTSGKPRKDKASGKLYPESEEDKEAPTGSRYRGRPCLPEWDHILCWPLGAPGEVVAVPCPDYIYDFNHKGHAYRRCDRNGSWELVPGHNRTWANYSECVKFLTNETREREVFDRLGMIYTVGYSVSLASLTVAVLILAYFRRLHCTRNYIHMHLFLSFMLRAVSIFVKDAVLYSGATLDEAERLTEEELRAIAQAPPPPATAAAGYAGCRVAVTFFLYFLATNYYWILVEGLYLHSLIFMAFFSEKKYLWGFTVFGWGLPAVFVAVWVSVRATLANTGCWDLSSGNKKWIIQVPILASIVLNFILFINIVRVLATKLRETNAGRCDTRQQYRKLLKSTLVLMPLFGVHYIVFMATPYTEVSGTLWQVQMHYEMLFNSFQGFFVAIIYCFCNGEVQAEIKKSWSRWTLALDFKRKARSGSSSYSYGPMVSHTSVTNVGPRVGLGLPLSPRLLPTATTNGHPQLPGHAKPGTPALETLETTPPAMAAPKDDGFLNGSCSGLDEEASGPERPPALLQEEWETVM

AVPR2 = AVPR2 (UniProt P30518 1-371)
NTSR1 = NTSR1 (UniProt P30989 1-418)
Sequence of NTSR1 (P30989 whole entry): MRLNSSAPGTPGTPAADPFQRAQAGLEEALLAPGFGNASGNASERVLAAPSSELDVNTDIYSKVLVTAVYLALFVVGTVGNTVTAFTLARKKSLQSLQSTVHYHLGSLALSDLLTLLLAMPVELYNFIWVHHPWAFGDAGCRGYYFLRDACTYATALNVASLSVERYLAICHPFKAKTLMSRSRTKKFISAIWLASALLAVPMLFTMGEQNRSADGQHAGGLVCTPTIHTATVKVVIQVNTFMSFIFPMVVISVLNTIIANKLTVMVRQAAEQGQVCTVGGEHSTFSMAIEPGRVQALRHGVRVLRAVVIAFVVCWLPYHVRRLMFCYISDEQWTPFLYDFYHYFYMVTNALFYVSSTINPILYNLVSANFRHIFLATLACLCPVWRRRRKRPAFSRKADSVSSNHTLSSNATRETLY

PTGER4 = PTGER4 (UniProt P35408 1-488)
Sequence of PTGER4 (P35408 whole entry): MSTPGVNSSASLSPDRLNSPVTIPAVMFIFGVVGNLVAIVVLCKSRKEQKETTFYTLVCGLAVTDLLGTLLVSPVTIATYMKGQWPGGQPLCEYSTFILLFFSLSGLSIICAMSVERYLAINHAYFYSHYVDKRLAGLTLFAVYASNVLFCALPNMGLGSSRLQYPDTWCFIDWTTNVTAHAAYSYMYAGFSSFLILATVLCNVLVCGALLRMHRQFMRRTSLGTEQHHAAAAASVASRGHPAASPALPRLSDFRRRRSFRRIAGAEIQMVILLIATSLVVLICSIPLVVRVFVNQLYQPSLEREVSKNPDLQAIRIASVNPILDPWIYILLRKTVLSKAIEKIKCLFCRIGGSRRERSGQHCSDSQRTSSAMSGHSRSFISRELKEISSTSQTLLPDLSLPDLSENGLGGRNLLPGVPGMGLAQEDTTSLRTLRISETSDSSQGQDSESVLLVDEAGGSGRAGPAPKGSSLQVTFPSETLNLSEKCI

CCR10 = biological target: T3, CCR10 (UniProt P46092 1-362)
T3 sequence (looked up): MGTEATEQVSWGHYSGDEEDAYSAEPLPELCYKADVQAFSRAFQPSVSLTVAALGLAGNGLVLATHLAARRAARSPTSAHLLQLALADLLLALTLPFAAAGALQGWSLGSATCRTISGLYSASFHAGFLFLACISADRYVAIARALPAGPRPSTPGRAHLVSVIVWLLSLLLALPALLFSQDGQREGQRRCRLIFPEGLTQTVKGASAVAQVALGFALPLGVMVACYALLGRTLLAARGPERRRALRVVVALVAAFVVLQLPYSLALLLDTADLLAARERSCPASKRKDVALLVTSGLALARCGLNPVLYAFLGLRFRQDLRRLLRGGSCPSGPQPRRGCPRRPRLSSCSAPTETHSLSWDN

NMU1R = biological target: T4, NMU1R (UniProt Q9HB89 1-426, limits assumed)
T4 sequence (looked up): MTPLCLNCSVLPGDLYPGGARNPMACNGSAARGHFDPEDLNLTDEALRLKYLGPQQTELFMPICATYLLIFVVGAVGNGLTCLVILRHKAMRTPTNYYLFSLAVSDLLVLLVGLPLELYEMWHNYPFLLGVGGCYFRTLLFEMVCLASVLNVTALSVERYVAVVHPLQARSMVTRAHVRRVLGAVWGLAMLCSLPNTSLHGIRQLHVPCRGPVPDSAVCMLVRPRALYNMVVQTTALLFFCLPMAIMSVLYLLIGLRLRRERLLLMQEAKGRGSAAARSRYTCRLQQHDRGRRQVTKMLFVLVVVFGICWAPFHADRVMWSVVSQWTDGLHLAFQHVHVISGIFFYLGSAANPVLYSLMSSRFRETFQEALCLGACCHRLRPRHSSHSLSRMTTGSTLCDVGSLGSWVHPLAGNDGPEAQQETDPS

HTR1F = biological target: T5, HTR1F (UniProt P30939 1-366)
T5 sequence (looked up): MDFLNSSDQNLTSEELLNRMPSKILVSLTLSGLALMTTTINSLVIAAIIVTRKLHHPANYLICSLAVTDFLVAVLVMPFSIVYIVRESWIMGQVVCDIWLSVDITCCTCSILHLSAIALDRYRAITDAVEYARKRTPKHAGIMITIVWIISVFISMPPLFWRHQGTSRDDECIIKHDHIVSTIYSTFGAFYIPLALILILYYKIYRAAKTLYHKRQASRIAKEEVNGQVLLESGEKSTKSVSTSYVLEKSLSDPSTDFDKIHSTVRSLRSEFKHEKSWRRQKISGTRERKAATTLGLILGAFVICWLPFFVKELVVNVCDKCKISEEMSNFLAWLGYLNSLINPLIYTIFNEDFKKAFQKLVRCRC

AGTR1 = biological target: T6, AGTR1 (UniProt P30556 1-359)
T6 sequence (looked up): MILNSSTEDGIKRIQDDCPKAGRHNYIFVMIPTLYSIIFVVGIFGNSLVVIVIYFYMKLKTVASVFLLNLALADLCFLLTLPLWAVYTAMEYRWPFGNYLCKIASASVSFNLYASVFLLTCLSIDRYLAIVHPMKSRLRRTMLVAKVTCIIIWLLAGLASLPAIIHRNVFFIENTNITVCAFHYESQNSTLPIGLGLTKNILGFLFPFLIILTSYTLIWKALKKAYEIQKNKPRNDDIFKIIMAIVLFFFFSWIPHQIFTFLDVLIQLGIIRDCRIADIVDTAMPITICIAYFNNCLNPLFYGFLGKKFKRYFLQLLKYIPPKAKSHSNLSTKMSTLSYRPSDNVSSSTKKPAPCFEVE

PPYR1 = PPYR1 (UniProt P50391 1-375)
Sequence of PPYR1 (P50391 whole entry): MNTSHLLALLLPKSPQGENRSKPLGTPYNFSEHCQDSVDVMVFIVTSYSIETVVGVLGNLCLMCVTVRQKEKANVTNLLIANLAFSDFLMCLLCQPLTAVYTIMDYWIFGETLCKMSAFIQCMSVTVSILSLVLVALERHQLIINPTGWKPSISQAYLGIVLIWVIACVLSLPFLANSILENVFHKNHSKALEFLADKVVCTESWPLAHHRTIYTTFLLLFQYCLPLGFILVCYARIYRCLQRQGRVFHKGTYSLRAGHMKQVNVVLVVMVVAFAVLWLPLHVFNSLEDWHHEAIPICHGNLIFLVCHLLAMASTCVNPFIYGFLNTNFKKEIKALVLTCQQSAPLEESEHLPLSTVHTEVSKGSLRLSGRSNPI

HTR5A = HTR5A (UniProt P47898 1-357)
Sequence of HTR5A (P47898 whole entry): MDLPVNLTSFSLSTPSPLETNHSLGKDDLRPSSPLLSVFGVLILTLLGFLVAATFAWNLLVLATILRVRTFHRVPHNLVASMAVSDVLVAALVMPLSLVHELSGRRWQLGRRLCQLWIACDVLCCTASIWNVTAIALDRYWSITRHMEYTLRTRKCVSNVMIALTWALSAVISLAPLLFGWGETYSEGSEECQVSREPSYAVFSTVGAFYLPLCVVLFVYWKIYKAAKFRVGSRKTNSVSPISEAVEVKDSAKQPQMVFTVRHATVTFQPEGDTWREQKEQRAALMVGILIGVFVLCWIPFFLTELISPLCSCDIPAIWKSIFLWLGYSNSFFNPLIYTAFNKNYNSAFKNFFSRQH

ADRB2 = ADRB2 (UniProt P07550 1-413)

## QATVGDVNTDRPGLLDLK (also: synthesised on Rink amide resin, C-terminal amide not given here outright) [octadecaneuropeptide (ODN)]
CCR1
  % Activity, arrestin, antagonist mode, 2.5 uM: -5.4%
HRH1
  % Activity, arrestin, antagonist mode, 2.5 uM: -38.5%
PTHR1
  % Activity, arrestin, antagonist mode, 2.5 uM: -5.7%
AVPR2
  % Activity, arrestin, antagonist mode, 2.5 uM: -11.2%
NTSR1
  % Activity, arrestin, antagonist mode, 2.5 uM: -21.4%
PTGER4
  % Activity, arrestin, antagonist mode, 2.5 uM: -15.1%
CCR10
  % Activity, arrestin, antagonist mode, 2.5 uM: -16.6%
NMU1R
  % Activity, arrestin, antagonist mode, 2.5 uM: -34.2%
HTR1F
  % Activity, arrestin, antagonist mode, 2.5 uM: -23.3%
AGTR1
  % Activity, arrestin, antagonist mode, 2.5 uM: -8.5%
PPYR1
  % Activity, arrestin, antagonist mode, 2.5 uM: -11.4%
HTR5A
  % Activity, arrestin, antagonist mode, 2.5 uM: -0.3%
ADRB2
  % Activity, arrestin, antagonist mode, 2.5 uM: -11.7%
